Data on seven molecules can be found in patent US20260218138A1, “ENGINEERED ACYLTRANSFERASES HAVING ALTERED SUBSTRATE SPECIFICITY” (KEZBIOSOLUTIONS GMBH, priority 2022, published 2026).

Substitutions are numbered along the chain they refer to. Names may count otherwise. Where two headings read alike, the source gives them in different places.

Data set [1] is described as follows: Screen: transfer of malonyl-moieties from Mal-CoA to N-(2-mercaptoethyl)-hexanamide (enzyme-coupled assay). The class given is biochemical, murine. Conditions: fixed substrate and acceptor concentrations; FIG. 4. Here is the method:
Specific transfers from Mal-CoA to N-(2-mercaptoethyl)-hexanamide were analyzed at fixed substrate and acceptor concentrations. […] Shown error bares reflect standard deviations from triplicates.
Further engineered mutants were expressed, purified and analyzed, building up on the previous studies. A screen for fifty different exemplary mutants was performed analyzing the transfer of malonyl-moieties from CoA to N-(2-mercaptoethyl)-hexanamide. Four solutions were prepared as 4× concentrated stocks in the assay buffer. Solution 1 contained the acyltransferases at the concentration range of 0.01 μM-10 μM and were arranged in four groups depending on their individual turnover rates to achieve good signal to noise ratios. Solution 2 contained the enzyme-coupled system including 8 mM α-ketoglutaric acid, 1.6 mM NAD+, 1.6 mM TPP and 60 mU/100 μL αKGDH. Solution 3 contained a fixed concentration of malonyl (Mal)-CoA at 200 μM and solution 4 contained the acceptor N-(2-mercaptoethyl)-hexanamide at 200 μM. 5 μL of Solutions 1-3 were pipetted into a 384-well Small Volume HiBase Microplates (Greiner Bio-one) and mixed manually. The reactions were started by adding 5 μL of solution 4 with an automatic multichannel pipette (ClipTip). The reaction progress was recorded using the following settings: 348-20 nm; emission: 476-20 nm; gain: 1700; focal height: 12.1 mm; flashes: 10; orbital averaging: off. […]

Data set [2] in a line: Enzyme-coupled assay: transfer of acyl-moieties from MMal-CoA to the ACP. The data set is classed as biochemical. Conditions: substrate MMal-CoA, acceptor ACP from murine FAS. Here is the method:
(§1) An enzyme-coupled assay was performed to analyze the transfer of acyl-moieties from CoA to the ACP. Four solutions were prepared as 4× concentrated stocks in the assay buffer. Solution 1 contained the acyltransferase at the concentration range of 0.01 μM-10 μM, depending on the transfer kinetics to achieve good signal to noise ratios. Solution 2 contained the enzyme-coupled system including 8 mM α-ketoglutaric acid, 1.6 mM NAD+, 1.6 mM TPP and 60 mU/100 μL αKGDH. Solution 3 contained the methylmalonyl (MMal)-CoA at concentrations between 0.1 μM and 1,000 μM and solution 4 contained the ACP from murine FAS as a standalone protein at 240 μM. 5 μL of Solutions 1-3 were pipetted into a 384-well Small Volume HiBase Microplates (Greiner Bio-one) and mixed manually. The reactions were started by adding solution 4 with the dispenser system of the microplate reader (ClarioStar, BMG labtech). The reaction progress was recorded using the following settings: 348-20 nm; emission: 476-20 nm; gain: 1500; focal height: 11.9 mm; flashes: 17; orbital averaging: off.

Data set [3] can be described thus: In-depth kinetics: enzyme-coupled assay, malonyl transfer from Mal-CoA to ACP. The class given is biochemical, murine. As to conditions: substrate A (Mal-CoA). The procedure: (§2) Y-axes show turnover in s^−1 and x-axes show substrate concentration in μM. Apparent kinetic parameters at a fixed acceptor concentration of ACP of 85 μM were determined by fitting the data points with the Michaelis-Menten function. Shown error bares reflect standard deviations from triplicates.
as §1
(§3) In-depth kinetic analysis results allowing a comparison of enzyme kinetic parameters for the transfer of malonyl-moieties from either Mal-CoA or 3-Oxo-3-[[2-[(1-oxohexyl)amino]ethyl]thio]-propanoic acid to the ACP are shown for a representative mutant (A35) herein. Enzyme kinetics were determined with the established enzyme-coupled assay for Mal-CoA kinetics and a variation of the new thiol quantifying assay using ThioGlo.
Enzyme-coupled assay was performed as described in Example 3 with 4× concentrated stocks. The enzyme concentration of A35 in Solution 1 was 4.2 μM, the substrate concentrations of Mal-CoA in Solutions 3 were between 8-400 μM and the acceptor concentration of ACP in Solution 4 was 340 μM.

Data set [4] is described as follows: In-depth kinetics: thiol quantification assay (ThioGlo), malonyl transfer from non-CoA substrate to ACP. The data set is classed as biochemical, murine. The procedure: as §2
To verify the re-engineered mutant activity, having a substrate specificity altered from natural CoA substrates to non-CoA substrates, an alternative method to quantify specific turnover rates for non-CoA substrates was established. Such non-CoA substrates are not detectable by the enzyme-coupled assay. We used a thiol-sensitive fluorophore (ThioGlo4; Yi et al. 2009) to quantify the released free thiol groups from the substrate 3-Oxo-3-[[2-[(1-oxohexyl)amino]ethyl]thio]-propanoic acid after the enzyme-specific transfer of the malonyl moiety to a non-thiol acceptor. Briefly, three solutions were prepared in either a twofold concentration or as 4× concentrated stocks in the assay buffer. […] Free thiols were detected by adding 10 μL of 120 μM ThioGlo in the buffer 250 mM potassium phosphate, 1 mM EDTA and 10% glycerol, mixing and fluorescence detection at the microplate reader (ClarioStar, BMG labtech) using the following settings: 400-20 nm; emission: 465-20 nm; gain: 700; focal height: 12.5 mm; flashes: 20; orbital averaging: off. […]
as §3
A variation of the thiol quantification assay in Example 5 was established to be able to separate the liberated thiol groups from 3-Oxo-3-[[2-[(1-oxohexyl)amino]ethyl]thio]-propanoic acid after acyl-transfer from the thiol groups of the acceptor ACP. […]

The conditions of data set [5]: Comparative data from Rittner et al. 2018; cited from earlier work.
[6] abbreviates: acceptor ACP fixed at 85 μM, apparent parameters.
[7] abbreviates: substrate B (3-Oxo-3-[[2-[(1-oxohexyl)amino]ethyl]thio]-propanoic acid), acceptor ACP fixed at 85 μM, apparent parameters.

B1: Mutant A48: engineered murine acyltransferase, mutations T161A F184E R286D K186D D160R (protein)
chain: NKRPLWFICSGMGTQWRGMGLSLMRLDSFRESILRSDEAVKPLGVKVSDLLLSTDERTFDDIVHAFVSLTAIQIALIDLLTSVGLKPDGIIGHSLGEVACGYADGCLSQREAVLAAYWRGQCIKDAHLPPGSMAAVGLSWEECKQRCPAGVVPACHNSERAVTISGPQAAVNEFVEQLKQEGVEADEVRTGGLAFHSYFMEGIAPTLLQALKKVIREPRPRSARWLSTSIPEAQWQSSLARTSSAEYNVNNLVSPVLFQEALWHIPEHAVVLEIAPHALLQAVLKDGVKSSCTIIPLMKRDHKDNLEFFLTNLGKVHLT
Turning to B1, the “turnover rate, transfer from Mal-CoA to N-(2-mercaptoethyl)-hexanamide” value in data set [1] was “did not give a detectable signal”.

B2: Mutant A01: engineered murine acyltransferase, mutation T161A (protein)
chain: B1 chain with R160D, E184F, D186K, D286R
One may read the Km as the substrate concentration at which the rate is half of its maximum. The kcat is the maximal rate divided by the concentration of active sites. Turning to B2, in data set [2], the Km turned out to be 1.47 µM and the catalytic constant (kcat) was determined as 0.051 s⁻¹.

B3: Mutant A35: engineered murine acyltransferase, mutations T161L F184L R286L K186D R300D (protein)
chain: B1 chain with R160D, A161L, E184L, D286L, R300D
In the case of B3, the results for the Km in data set [3] (setting [6]) and in data set [4] (setting [7]) were 25 µM and 30 µM, respectively. For the same molecule, the kcat in data set [3] (setting [6]) worked out at 0.01 s⁻¹; in data set [4] (setting [7]) it was 5.75 s⁻¹. The Factor in data set [3] (acceptor ACP, kcat/Km relative to substrate A) was 1; in data set [4] (substrate B (non-CoA substrate), acceptor ACP, kcat/Km relative to substrate A (Mal-CoA)), 467.

B4: Mutant A04: engineered murine acyltransferase, mutations T161A F184A K186A R286A (protein)
chain: B1 chain with R160D, E184A, D186A, D286A
As for B4, in data set [2], the Km was determined as 7.24 µM and the kcat was found to be 0.013 s⁻¹.

B5: (WT): wild type murine FAS malonyl-acetyl-transferase (MAT), no mutation (protein, listed as Mus musculus)
chain: B1 chain with R160D, A161T, E184F, D186K, D286R
With B5, in data set [5], the Km was 620 nM and the kcat is 4.000 s⁻¹. Also, in data set [2], the Km was determined as 0.53 µM and the kcat worked out at 1.297 s⁻¹.

B6: Mutant A03: engineered murine acyltransferase, mutations T161A F184A R286A (protein)
chain: B1 chain with R160D, E184A, D186K, D286A
Regarding B6, in data set [2], the Km worked out at 3.41 µM and the catalytic constant (kcat) amounted to 0.021 s⁻¹.

B7: Mutant A02: engineered murine acyltransferase, mutation T161Y (protein)
chain: B1 chain with R160D, A161Y, E184F, D186K, D286R
Turning to B7, in data set [2], the Km is 38.8 µM and the kcat amounted to 0.428 s⁻¹.
